Results reported in paper PMC4679524.

Assays:
[1] = target: GST-LE, dual phosphorylated (CK2 plus Syk, 2 added phosphates) (encephalomyocarditis virus (EMCV)); assay: SEC
[2] = target: GST-LE, dual phosphorylated (CK2 plus Syk, 2 added phosphates) (encephalomyocarditis virus (EMCV)); assay: pull-down
[3] = target: GST-LE, singly phosphorylated (reacted with CK2, 1 added phosphate) (encephalomyocarditis virus (EMCV)); assay: pull-down
Sequence of GST-LE, singly phosphorylated (reacted with CK2, 1 added phosphate) (encephalomyocarditis virus (EMCV)) (P03304 1-67 limits assumed): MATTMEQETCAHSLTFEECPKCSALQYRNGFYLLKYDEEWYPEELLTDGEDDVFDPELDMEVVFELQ

Sequence of GST-LE, dual phosphorylated (CK2 plus Syk, 2 added phosphates) (encephalomyocarditis virus (EMCV)) (P03304 1-67 limits assumed): as above

“rCrm1 (recombinant His-tagged murine Crm1) (from UniProt Q6P5F9 1-1071) (natural protein)” showed a stoichiometry N [1] of 1, a percent stronger rCrm1 signal per unit of GST(-LE) than without phosphate [2] of 50 to 70% and a percent stronger rCrm1 signal per unit of GST(-LE) than without phosphate [3] of 50 to 70%.
